Test results from the supplement of paper PMC10126150.
± gives the standard deviation of the averaged measurements.

Tested on: ATP
Assay: switch fluorescence ratio, 500 uM ATP over buffer (Cy3 cluster intensity, sum of 5 cycles each) (fold (ratio)); higher = stronger signal-on switching upon ATP binding; sequences stand for … in TCGTCGGCAGCGTCAGATGTGTATAAGAGACAGTTTTTTTTTTTTTTTTTTTTTTTTT…TC
Settings: aptamer strand: ATP DNA aptamer (quencher-CACCTGGGGGAGTATTGCGGAGGAAGG + anchor), 100 nM annealed; ATP concentration: 500 uM
Procedure, shortened: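 The fluorescence ratio divides summed target-cycle Cy3 intensity by summed buffer-cycle Cy3 intensity for each cluster and is averaged per switch-domain sequence. Cy3-labelled switching-strand clusters on a modified Illumina MiSeq flow-cell were annealed to 100 nM quencher-labelled ATP aptamer, then imaged in selection buffer and again after 15 min with 500 uM ATP at 22 °C. Five such cycles were run, with NaOH stripping and re-annealing between them, and clusters outside 100-1000 RFU were excluded.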
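Note: ATP exposure 15 min at 22 °C before imaging.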

Point of comparison: TTTCGGAGA, switch fluorescence ratio 1.11 ± 0.17. Against it:
- CCGCGACAAG — higher, 2.18 ± 0.086
- AGAGAGAGGT — within error, 0.992 ± 0.045
- GCGTTAAGTT — within error, 0.984 ± 0.035
- GGCGTAATTG — within error, 1 ± 0.032
- AAGTGAATGG — within error, 0.9986 ± 0.0032
- GTATTTATGA — within error, 0.974 ± 0.0056
- AGATTTGGCT — within error, 0.9952 ± 0.0065
- TCGGGTCCGT — within error, 0.982 ± 0.027
- TGTCAAAAAC — within error, 1.28 ± 0.29
- GATATTTGGA — within error, 0.996 ± 0.041
- ATGAGGAATG — within error, 1.008 ± 0.0043
- TTGTGGCGGA — within error, 1.0229 ± 0.00038
- TCTATTGGGA — within error, 0.981 ± 0.028
- AGGTAGGACT — within error, 1 ± 0.014
- TAAGCCTTTT — within error, 1.038 ± 0.0024
- GGTATAGTTG — within error, 0.993 ± 0.041
- TCTGGTGACG — within error, 1.04 ± 0.054
- AAAATTATTT — within error, 1.01 ± 0.021
- AAGAAGGATG — within error, 0.982 ± 0.049
- CCCGAATATT — within error, 1.06 ± 0.029
- AAAAGTTTGG — within error, 1 ± 0.015
- GTGGGGGGCG — within error, 1 ± 0.042
- GGTGAGGTTG — within error, 0.971 ± 0.02
- CGTGACGAGC — within error, 1.12 ± 0.062
- GACCTCACAT — within error, 1.18 ± 0.022
- AGTTCGCTTT — within error, 0.993 ± 0.028
- TGAGAAGGGA — within error, 1.02 ± 0.22
- TGGAGAGGGA — within error, 0.9805 ± 0.0078
- GATGAAAAAA — within error, 1.02 ± 0.037
- ATACACATCC — within error, 1.06 ± 0.061
- CTCGGGACTT — within error, 0.9884 ± 0.0024
- TAAATACTCG — within error, 1.25 ± 0.044
- GACAGGTGAG — within error, 1.15 ± 0.058
- CCTTTTTCTT — within error, 1.04 ± 0.029
- CTTTTAGTAG — within error, 0.974 ± 0.015
- ATTTGGGCTT — within error, 1.05 ± 0.12
- TCAATTTTTT — within error, 0.993 ± 0.016
- AGGCGGGGGT — within error, 1.018 ± 0.0094
- AATAGGTAG — within error, 0.976 ± 0.014
- GAGGGGGGGG — within error, 1.01 ± 0.039
- GTGTTATTGC — within error, 0.953 ± 0.011
- TCGGAGGGGG — within error, 1.05 ± 0.2
- TCGAGTATGT — within error, 0.983 ± 0.012
- ACACAGGTAT — within error, 1.12 ± 0.059
- TCATAGTTGT — within error, 1.01 ± 0.051
- GATTGCAGCG — within error, 1.002 ± 0.0016
- TTTATGATTT — within error, 1 ± 0.024
- GAGGGAAAAG — within error, 1.01 ± 0.032
- GACTAAGTTT — within error, 1.018 ± 0.0076
- CCTCATTTTT — within error, 0.988 ± 0.0099
- AGGGCAAGTG — within error, 0.996 ± 0.034
- TCCCAGTGCT — higher, 1.84 ± 0.21
- GGGGCTGCTT — within error, 0.9718 ± 0.0035
- TTCGTTTGCT — within error, 0.955 ± 0.035
- AAGCGGCTTC — within error, 0.988 ± 0.013
- GAGAGAAAAT — within error, 1.49 ± 0.63
- GGGATGGTAG — within error, 1.01 ± 0.027
- GTTCGACTGT — within error, 1.024 ± 0.0042
- TTTCAACCTT — higher, 1.42 ± 0.071
- GGTTACTGAG — within error, 0.98 ± 0.018
- ACTGGGGATA — within error, 0.988 ± 0.047
- CGCTTGAAAT — within error, 1.05 ± 0.018
- ACATAGGGCT — within error, 0.987 ± 0.04
- ATATGGGTTA — within error, 0.9912 ± 0.001
- AAGTTAGACA — within error, 1.021 ± 0.0087
- AGAGGGGTTA — within error, 1.01 ± 0.056
- CAGATTTGGG — within error, 1.01 ± 0.035
- CGTTTAACAT — within error, 1.01 ± 0.014
- TTTGTGAGGG — within error, 0.982 ± 0.028
- TGGAATATTT — within error, 1.03 ± 0.044
- TTTTTATTTT — within error, 1.01 ± 0.074
- GGCGGCGGGA — within error, 0.998 ± 0.027
- TTTTGTTTCT — within error, 0.992 ± 0.027
- GACAGTGGTA — within error, 0.973 ± 0.013
- TTTTCCGACA — within error, 2.28 ± 1.5
- TTTTGGAGTT — within error, 0.998 ± 0.035
- CTGGTGGGGT — within error, 1.02 ± 0.044
- TGGGTATAAA — within error, 0.976 ± 0.029
- GGGGTCGGG — within error, 0.977 ± 0.044
- AAATGCTACG — within error, 1.01 ± 0.029
- TCCCGGGAAT — within error, 0.987 ± 0.031
- TTTCGAGTTT — within error, 0.983 ± 0.012
- GTATGTGGGG — within error, 0.996 ± 0.038
- GGAGCATTTG — within error, 1.27 ± 0.039
- TGCAGGGGTT — within error, 1.05 ± 0.02
- TTCATGTGTT — within error, 1.04 ± 0.037
- ATCCTAATGG — within error, 0.983 ± 0.012
- GGCCTCATGC — within error, 1.02 ± 0.017
- TGACTGAAAA — within error, 1.009 ± 0.007
- TTTTTACCCT — within error, 1.08 ± 0.067
- GGGTTTGCTG — within error, 1.01 ± 0.076
- GAATCTTAGG — within error, 1.03 ± 0.024
- TACAGACGAT — within error, 1.3 ± 0.068
- AAGGAGGTTG — within error, 0.999 ± 0.053
- ACTTTGTTGC — within error, 1.01 ± 0.0079
- AGTTTCTTAT — within error, 0.995 ± 0.028
- TGACGGTAGC — within error, 1.06 ± 0.056
- AATGCCAGGG — within error, 1.02 ± 0.026
- GTAAAAGGCG — within error, 1 ± 0.024
- AAGGGCAGGG — within error, 1.03 ± 0.029
- TGTATGAGGT — within error, 1.02 ± 0.013
- TTTCGAATAA — within error, 0.986 ± 0.0099
- GGGTCGCGCA — within error, 1.02 ± 0.029
- AGGGGTATGG — within error, 0.998 ± 0.017
- TTGGTGGTTG — within error, 0.993 ± 0.029
- CCCATGTTAA — within error, 0.993 ± 0.018
- GGGTAAGAGA — within error, 1.04 ± 0.079
- GGGGTGGGGC — within error, 1 ± 0.042
- ATTAAGGTAA — within error, 1.01 ± 0.033
- AAGGTACCGG — within error, 1.01 ± 0.03
- CCGGGATCTT — within error, 1.05 ± 0.013
- TTTCATGTAT — within error, 1.01 ± 0.012
- TAGGAAAAAA — within error, 1.03 ± 0.033
- TATAGAAATA — within error, 0.998 ± 0.017
- TACGGGGGCG — within error, 1.01 ± 0.1
- ATAGGGGGCT — within error, 0.9892 ± 0.0096
- AGTGCGGGTG — within error, 1.13 ± 0.028
- CACAATTTTT — within error, 0.991 ± 0.025
- TGGTGAACGT — within error, 1 ± 0.053
- TTTTTTATAG — within error, 1 ± 0.038
- CGTGGCGGGA — within error, 0.923 ± 0.09
- TTACTTGTAC — within error, 1.15 ± 0.025
- TTATATGTAG — within error, 0.993 ± 0.024
- AAGTTTCGAG — within error, 0.983 ± 0.017
- GGGGGTTCAA — within error, 0.983 ± 0.025
- GGTGGATGGC — within error, 1 ± 0.013
- CCATGGCGGT — within error, 1.05 ± 0.033
- TAAGGCTGC — within error, 1.04 ± 0.076
- TCTACGGGAT — higher, 2.54 ± 0.2
- CGTGTGTATG — within error, 0.997 ± 0.0085
- CTAGAATGAT — within error, 1.014 ± 0.0072
- GGGGGTGTCG — within error, 0.994 ± 0.035
- AGGATGGTAA — within error, 1 ± 0.02
- TGGTTCTCGA — within error, 0.987 ± 0.012
- CGGACCATTT — within error, 1.04 ± 0.024
- CATCGGGTAG — within error, 0.996 ± 0.02
- GTCGGATGCT — within error, 1.02 ± 0.047
- GAGGCTAGGT — within error, 1.01 ± 0.029
- GAACGGTGGG — within error, 0.976 ± 0.019
- GAGAGAGGTG — within error, 1.0377 ± 0.00093
- GGGCGCGGGA — within error, 0.991 ± 0.015
- TCCGAGGTTT — within error, 1.28 ± 0.044
- CATCTTGAAA — within error, 1.028 ± 0.0097
- GTTTGTAGAG — within error, 0.993 ± 0.026
- GCGTATTGAG — within error, 1.02 ± 0.022
- ACGAAAAGTG — within error, 1.05 ± 0.072
- TGAATTTCTT — within error, 0.986 ± 0.022
- GGTGTTGGG — within error, 1.01 ± 0.019
- GGCTTACTAT — within error, 1.01 ± 0.02
- GTTGGCGGGG — within error, 0.976 ± 0.015
- TGTTGTTTTT — within error, 0.991 ± 0.037
- GGGAAGTCAG — within error, 1.002 ± 0.0098
- GAGTGCGGAT — within error, 0.98 ± 0.026
- TATGGACATT — within error, 1.03 ± 0.011
- TTCTGTACGG — within error, 1.02 ± 0.014
- GCGTTAAGTA — within error, 1.005 ± 0.0085
- AGAGCTAAGT — within error, 0.982 ± 0.027
- ATCTAGTACC — within error, 0.999 ± 0.046
- TATACGTTTT — within error, 1.12 ± 0.14
- TTTGACAGCG — within error, 1.02 ± 0.066
- GGGGTGCCAA — within error, 0.975 ± 0.067
- AAACACAAGA — within error, 1.13 ± 0.18
- GGATGCCGGG — within error, 1 ± 0.043
- AAGGGGGAAG — within error, 0.971 ± 0.015
- ATGAGGCATT — within error, 1.04 ± 0.016
- GGATGCTTTC — within error, 1.02 ± 0.026
- GATTGAATGG — within error, 0.985 ± 0.055
- GAGCATTCCG — within error, 1.003 ± 0.0051
- GAATTATATT — within error, 0.988 ± 0.021
- GTAAGTGAGC — within error, 1.034 ± 0.0026
- GATCCGCTGG — the same, 1.11 ± 0.012
- GGCTTATGTG — within error, 1.02 ± 0.051
- TATATGATG — within error, 1.0194 ± 0.00035
- TTGATCAGGG — within error, 0.989 ± 0.042
- AGGGAATTGG — within error, 1.01 ± 0.044
- GCATTGTTTG — within error, 0.995 ± 0.034
- TGGGGCTAAT — within error, 1.02 ± 0.034
- TCCACTTATT — within error, 1.05 ± 0.093
- TCCTGTTCTG — within error, 1.02 ± 0.041
- TACTGTTATG — within error, 1.1 ± 0.099
- CTCTGTGTTA — within error, 1.06 ± 0.015
- CTCAATTCTG — within error, 0.969 ± 0.031
- TTACAGTTTT — within error, 0.9442 ± 0.0036
- TATCGTAAAT — within error, 1 ± 0.029
- ATATTTGTGG — within error, 0.9843 ± 0.0088
- CAGGATGTAC — within error, 1.05 ± 0.063
- TGGGTGTGGT — within error, 1 ± 0.025
- GTGACCGGGA — within error, 1 ± 0.027
- TTAGACGGCC — within error, 1.03 ± 0.014
- TATATTTTTT — within error, 1.02 ± 0.068
- CGTCAAAAAC — within error, 1.38 ± 0.2
- GTTGACGCTA — within error, 1.07 ± 0.024
- TGTTAGTGGC — within error, 1 ± 0.04
- TTTAGTGAGG — within error, 0.974 ± 0.03
- CCAATATTTA — within error, 0.994 ± 0.03
- TCCCGGTAGT — within error, 1.01 ± 0.019
- ATAACGTCGG — within error, 0.9867 ± 0.0082
- ATCATGTACA — within error, 0.996 ± 0.024
- CTCAGGGCCG — within error, 1.05 ± 0.11
